Assay: soluble on expression in E. coli; label from the status in PepcDB or PDB records

Sequence	soluble on expression in E. coli
MSLRYIVVGASAAGISGAKTLRELDKDAEIILVSKDENVYSRCILHHYISGHRDIEALDFTDRDFFEKYNIEWKKGLEVKAIDDREHVIVLSNGESLKYDKILLATGASAFIPPVENLREAKNVVGLRNLEDAIKIKEEAEKVKNVVVLGAGLVGIDAIAGLAFKDLNVTLVEMGDRVLPIQLDKYASSKYEKRFEDAGVKLKLGVRAEKVLIDENKNPKALLINTGEEIPCELIIVATGVRSNVAFLKDSSIETDRFGLIINEKGETNARDVYGAGDITGRNPIWPTAVKEGIIAANNMVGNEIFMEDFFGSKNTMNFLGLTTMSLGVVNAPDDSYTEEIDISGENYKKIIHKDGKIYGAIIQGDLSYAGVLTQLIKEKIHVSKVKKPLFEIDYADFFNIKENLEYTYEGHHHHHH	soluble
MSLVPARPNRPEADREALWKIVHDRCEFGYRRTGAYAPCTFVDEQSGTALYKADFDPYQFLLIPLARITGIEDPALRESAGRNYLYDAWAARFLVTARLNNSLPESDVVLTINPKNARTQDQLHIHISCSSPTTSAALRNVDTSEYVGWKQLPIDLGGRRFQGLAVDTKAFESRNLFRDIYLKVTADGKKMENASIAVANVAQDQFLLLLAEGTEDQPVAAETLQDHDCSITKSEGHHHHHH	soluble
MAGDPMKKLVTATTLTAGIGTALVGQAHHADAAENYTNYNNYNYNTTQTTTTTTTTTTTSSISHSGNLYTAGQCTWYVYDKVGGEIGSTWGNANNWAAAAQGAGFTVNHTPSKGAILQSSEGPFGHVAYVESVNSDGSVTISEMNYSGGPFSVSSRTISASEAGNYNYIHILEHHHHHH	not soluble
MGSDKIHHHHHHMERAMKILAHRGWWLEPVEKNSETAFRRAFENGFGVETDTRDQNGVLKIAHDMPVGDQVMDLDYFLDLHKSYAGSGTIAMNIKADGLHKALRASLEGAGITDLFCFDMAVPDAIGYLNNGFITYTRHSELEPLPPFYDKAQGVWLDAFYSDWITPDVIQKHLDAGKKVALVSPELHGRDHTAAWDVWGDLTGDDISICTDLPHLAAEKWG	not soluble
MSLIASIGELLIDLISVEEGDLKDVRLFEKHPGGAPANVAVGVSRLGVKSSLISKVGNDPFGEYLIEELSKENVDTRGIVKDEKKHTGIVFVQLKGASPSFLLYDDVAYFNMTLNDINWDIVEEAKIVNFGSVILARNPSRETVMKVIKKIKGSSLIAFDVNLRLDLWRGQEEEMIKVLEESIKLADIVKASEEEVLYLENQGVEVKGSMLTAITLGPKGCRLIKNETVVDVPSYNVNPLDTTGAGDAFMAALLVGILKLKGLDLLKLGKFANLVAALSTQKRGAWSTPRKDELLKYKEAREVLAEGHHHHHH	soluble
MGSDKIHHHHHHMLMTPDEDRITQLYEAFNRRAFDRCIAMLAPDVSWPDELEDRRLEGLDAVRAYLDHAIAPLRVCYQPIALFTPSPGQIEVLARQTVLSATDGSLWSSLRVRHRYTIKDGLFTHLESEQNYTAPTFEGVDRLLRRLYDAINAGDVDGAAACFGDHACFEDKLEDGPISGPAAIRAHFEHLFATLQVTATMCDYALEPDDRVRVRLQVEARGATGRLWHDGGVTAWYRLEGGLIVGQDVDDSGEEAP	not soluble
MAHHHHHHMVLLWVDAEQYGVASSLGLSDDAKYPAFVIARGEDHFVHPSTEPVTAESIEKFIIEYSEKKLSPEIKSQPVPEIETVEGLTTVVGKTLDKYLSSGKDMLIEFFAPWCGHCKNLAPIYAKVAKEFESSDVIIAAMDATANQVDNSLFDVSGFPTIYFVPHGGKPIVYDGGRTFYEIYKFVHEHSSTLKDVPIPEEVKREEEKNGDYDDL	soluble
MDKFRVQGRTRLSGEVTISGAKNAALPILFAALLAEEPVELQNVPKLKDIDTTIKLLSQLGTKIERNNGSVFVDASAVNEFCAPYDLVKTMRASIWALGPLVARFGQGQVSLPGGCAIGARPVDLHITGLEQLGAEIKLEEGYVKASVNGRLKGAHIVMDKVSVGATVTIMSAATLAEGTTVIENAAREPEIVDTANFLNTLGAKISGAGTDRITIEGVTRLGGGVYRVLPDRIETGTFLVAAAISGGKVVCRQTRPDTLDAVLAKLREAGADIEVGDDWISLDMQGKRPKAITFRTAPHPGFPTDMQAQFSLLNLVAEGTGVITETIFENRFMHVPELIRMGAHAEIESNTVICYGVEQLSGAQVMATDLRASASLVLAGCIAEGVTIVDRIYHIDRGYERIEDKLRALGAKIERVKGE	not soluble
MPNELSRSLSPYLLMHANDPVEWRMWSKETLRIATEENRLIFLSIGYSSCHWCHVMHEESFVDPDVAEILNNNYIPVKVDREERPDLDSYFMKVSQVINGNGGWPLNIILLPDARPVFAMTYVPKEDRNGMTGLKTILIQLSQMYLKDPDQFKDQAKAVSDAMEERESV	soluble
MSLKNTTIADVAAAADVSVTTVSRYLNGNYQKMSAATKQRIKETIATLHYAPKASARKMRQDHSQLIGVVVGDIANVFSSLLFKGIYDVLQPAGYDVLLMNANNTATTEHGELTRLAAQQVDGIILQPSAATAAAYAGLTIPTIIVDRQLPNSPLAQVLSSNFDASYQLGQHLREQGYRRLITVGRAVAPHTAQTDRLAGLTATGLSVIHLDMTSHGAPWLTQQLRQYQQAPDKPVIISLMGPLLFEILASLKAAHLHFPADVGLVSFDDWQWSQYVNDGIYLLQQQPALMGQLAATTLLHQLSTTPTTMTQYVPVAPVVKPSLEGHHHHHH	not soluble
MAKNIQAIRGMNDYLPGETAIWQRIEGTLKNVLGSYGYSEIRLPIVEQTPLFKRAIGEVTDVVEKEMYTFEDRNGDSLTLRPEGTAGCVRAGIEHGLLYNQEQRLWYIGPMFRHERPQKGRYRQFHQLGCEVFGLQGPDIDAELIMLTARWWRALGISEHVTLELNSIGSLEARANYRDALVAFLEQHKEKLDEDCKRRMYTNPLRVLDSKNPEVQALLNDAPALGDYLDEESREHFAGLCKLLESAGIAYTVNQRLVRGLDYYNRTVFEWVTNSLGSQGTVCAGGRYDGLVEQLGGRATPAVGFAMGLERLVLLVQAVNPEFKADPVVDIYLVASGADTQSAAMALAERLRDELPGVKLMTNHGGGNFKKQFARADKWGARVAVVLGESEVANGTAVVKDLRSGEQTAVAQDSVAAHLRTLLG	soluble
SATQIPSTISILATSDIHGNVLNYDYATGKAPTNTQGLAKVSSYVNSVRASKPNVMLIDDGDTIQGTPLSYYYDKIDTTSEYPLMKIMGAMKYDTWTLGNHEFNYGLPTLNRVISDARKENINVLSANTYNSDNTNFVNPYYIKTFNINGKTVNVGILGLTTKCIPDWEDPSHYAGLHFNDLVDEAKLWVPRMKAAGANVVIVAAHSGEEGAADTIPENQIKAIATNVSGIDAIVAGHAHVTVNDTSLKNPNGKTVPVVEPNKWGTFVSQIDITLDNSGNASTINTQNVKMTDSIPEDPNIVNIIQPYQNKTLDYIST	not soluble
MATSFRYGHGGSYKSACAVWFDLLPALREGRICITNIHGMQPLEVIEQRLGEKFPDTARLIRISSRNPEGFELWKYFFCWAPIGAFILIDECQQIFSVNAGFKMANIHKRPFTDFEPHLPEGFSELFHSRWLTIDTSSLDNGEIDDCQRTRFDEQGRIIYPENFNNAFMEHRHYNWDIVLLTPDFAQIPKELKGVAELAKQHKGKDGIFFSNRKPRILEHDPTRTVTKPSKDDVVYNLKVPLDVHLLYASTVTGQ	not soluble
MAQEEEDVRDYNLTEEQKAIKAKYPPVNRKYEYLDHTADVQLHAWGDTLEEAFEQCAMAMFGYMTDTGTVEPLQTVEVETQGDDLQSLLFHFLDEWLYKFSADEFFIPRVGRRIFIVQAPSGNRSQSNNIFSNAGL	soluble
MTITALTVTLPLLWRRLTTAGVKYADQGHFVGSAGVPAADAGGRDAASEQIARWTQTCTVVLVCGHGPAKWAFRSWCTSRSCDTLPVALRYRLQSNPLVGKLTTKYFLPLGTRQVGDHVVFFNFGYEEDPPMALPLSESDEPNRYCIQLYHQTASQVDLTGKEVLEVSCGAGGGASYIARNLGPASYTGLDLNPASIDLCRAKHRLPGLQFVQGDAQNLPFPDESFDAVVNVEASHQYPDFRGFLAEVARVLRPGGHFLYTDSRRNPVVAEWEAALADAPLRTISQRDIGAQAKRGLDANTARSQEAIGRRAPVLLAGLTRCAVRVLDWDLRRGGGFSYRIYLFAKD	not soluble
MGSDKIHHHHHHMHDVLIIGSGVIGMSIARHLSATHLDVAVIDRDVPGKHASYKAGGMLGAQNEFTEDSDLFQLAIESRAMFPQLSKSLLDETGIDIQFKNSGLIKIANEHDDISSIKRQYQFLNSQDRSVKQLSDDDLLQLTHGEVKPSYAAIHIPHDGQINAHHYTLALLESMKLRDIKRYESTEVTSIERHNGYYSVKTDQSSTIEAHKIIVAGGAWSSQLLTQYHLQRQVIGVKGEVILLENNDLSLTETLFMTNGCYIVPKQPNRFLIGATSEFNNYSVGTTDEGMDWLLRHAYHRVPQLKDSHILKKWSGVRPYTEKEMPVMDQIDDGLYVISGHYRNGILLSPIIGRDIANWLLSGIKPSRYSSFTVTRRNNHEVYH	not soluble
MRNEMHLQFSARSENESFARVTVAAFVAQLDPTMDELTEIKTVVSEAVTNAIIHGYNNDPNGIVSISVIIEDGVVHLTVRDEGVGIPDIEEARQPLFTTKPELERSGMGFTIMENFMDEVIVESEVNKGTTVYLKKHIVKSKRYLEGSSF	soluble
MIYAAEEVRARFARRGLSFDPTVEEIVRGILEAVREEGDEALDRFSRDLDGYPVEEVPKRAWREAYEDLDEDLRDALETARERIEAFYREEARGGFLRAEGGGVLAQLVRPLERVGVYVPGGSAPLLSTLLMTVVPAKVAGVREVIVASPPKVHPGVLAAAWVAGADRLFAMGGAQAIAALAYGTGRVPRVDKIVGPGNRYVVAAKRLVYGTVGIDGLAGPTETMIIADGSASPRLLAADLLAQAEHGPDSEPWLLSPDRALLERVEAELSWQLQDLPRAEVARQALEKGGLVLTKDLEEAFALANLYAPEHLSLALSDPLPWLEKVQNAGGVFLGEGSPEALGDYIAGPSHVMPTSGTARFQGGLAVRDFLKVIPVVGLSEGAARELAKKGALLARAEGLEGHARSLDLRR	soluble
MFNLKREHFRDDYLYRFYQYGDTHSKIPSNLYKVLARKLDMISASENINDLRSPPANHLELLEPKENKIYSIRVNKQYCLIFKYENNEVNNLYLDPHSYNL	not soluble
GMSVAAEVAQVAQSAIDDFNAAYGLCLDDDRLEQWPTLFVDDCLYQVIARENVDNGLPAAVMYCDSKGMLADRVVALRKANVFPEHFNRHLIGRAVITGVEGDQVSAEASYVVFQTRNDGETRIYNAGKYVDRFDLSGGTVRLKSRTCIYDTLRIATLLATPI	soluble
